Biological target: T1, CNA1 (Saccharomyces cerevisiae, UniProt P23287)
T1 chain: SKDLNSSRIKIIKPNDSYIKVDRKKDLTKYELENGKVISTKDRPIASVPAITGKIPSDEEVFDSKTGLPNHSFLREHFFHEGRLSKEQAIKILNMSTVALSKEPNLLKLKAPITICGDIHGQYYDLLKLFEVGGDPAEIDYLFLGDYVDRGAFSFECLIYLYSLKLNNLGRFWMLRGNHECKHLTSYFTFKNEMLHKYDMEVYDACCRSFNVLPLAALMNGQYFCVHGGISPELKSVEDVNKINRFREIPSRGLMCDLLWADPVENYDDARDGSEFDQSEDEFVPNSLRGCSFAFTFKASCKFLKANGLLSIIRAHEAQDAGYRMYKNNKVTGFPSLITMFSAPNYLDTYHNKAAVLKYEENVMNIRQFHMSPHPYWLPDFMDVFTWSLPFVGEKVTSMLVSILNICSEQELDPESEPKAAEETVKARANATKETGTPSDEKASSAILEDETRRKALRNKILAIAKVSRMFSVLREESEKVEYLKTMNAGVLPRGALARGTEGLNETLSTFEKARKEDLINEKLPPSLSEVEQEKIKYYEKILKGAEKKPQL
Assay: SPROX

Kd: 120 nM
B1: CPR1 (protein)
chain: not shown
modifications: cyclosporin A

From publication PMC3085011 (2011)
